Assay results as given in US6936690 (Takeda / Millennium, dated 2005).
Where a chain is given by its changes, count along the chain named. Names may count otherwise.

T1: Myc-tagged CARD-14 (full-length CARD-14 with C-terminal Myc epitopes, pCMV-Tag 5A) (human, UniProt Q9BXL6 1-1004)
T1 construct: Expressed in 293T cells (co-immunoprecipitation, Bcl-10 phosphorylation) and Rat-1 cells (co-localization)
T1 sequence: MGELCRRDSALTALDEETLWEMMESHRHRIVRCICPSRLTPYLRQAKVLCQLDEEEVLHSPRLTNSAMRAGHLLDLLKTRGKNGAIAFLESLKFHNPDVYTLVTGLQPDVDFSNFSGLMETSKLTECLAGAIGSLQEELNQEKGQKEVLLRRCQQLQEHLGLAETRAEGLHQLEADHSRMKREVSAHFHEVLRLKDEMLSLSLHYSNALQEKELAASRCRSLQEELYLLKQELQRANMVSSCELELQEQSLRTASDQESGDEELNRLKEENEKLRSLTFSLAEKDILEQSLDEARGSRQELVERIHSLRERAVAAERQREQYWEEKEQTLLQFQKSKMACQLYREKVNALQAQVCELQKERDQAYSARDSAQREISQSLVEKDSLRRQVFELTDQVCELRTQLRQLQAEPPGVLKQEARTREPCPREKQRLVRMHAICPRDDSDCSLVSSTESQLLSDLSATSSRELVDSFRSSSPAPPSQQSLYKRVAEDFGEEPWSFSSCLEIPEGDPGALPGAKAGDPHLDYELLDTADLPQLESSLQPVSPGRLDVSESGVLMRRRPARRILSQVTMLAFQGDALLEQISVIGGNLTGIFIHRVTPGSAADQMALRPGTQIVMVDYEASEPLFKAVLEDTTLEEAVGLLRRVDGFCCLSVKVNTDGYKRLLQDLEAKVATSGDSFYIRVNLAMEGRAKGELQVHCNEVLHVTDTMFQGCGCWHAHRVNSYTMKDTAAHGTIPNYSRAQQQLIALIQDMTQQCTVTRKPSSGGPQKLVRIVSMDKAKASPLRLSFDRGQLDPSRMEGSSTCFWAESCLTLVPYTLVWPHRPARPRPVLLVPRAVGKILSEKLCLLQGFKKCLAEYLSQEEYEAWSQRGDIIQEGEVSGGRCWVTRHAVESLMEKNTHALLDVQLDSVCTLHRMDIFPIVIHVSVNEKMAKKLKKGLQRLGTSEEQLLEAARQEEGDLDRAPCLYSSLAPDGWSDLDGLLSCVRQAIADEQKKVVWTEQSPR

T2: CARD-14 protein labeled with 35S-methionine (human, UniProt Q9BXL6 1-1004, limits assumed, labeled with 35S-methionine)
T2 construct: also called radiolabeled CARD-14
T2 sequence: T1 sequence

B1: HA-tagged Bcl10 (other, UniProt O95999 1-233, looked up, not shown: small tags and cut ends)
chain: MEPTAPSLTEEDLTEVKKDALENLRVYLCEKIIAERHFDHLRAKKILSREDTEEISCRTSSRKRAGKLLDYLQENPKGLDTLVESIRREKTQNFLIQKITDEVLKLRNIKLEHLKGLKCSSCEPFPDGATNNLSRSNSDESNFSEKLRASTVMYHPEGESSTTPFFSTNSSLNLPVLEVGRTENTIFSSTTLPRPGDPGAPPLPPDLQLEEEGTCANSSEMFLPLRSRTVSRQ
notes: Expressed in Rat-1 cells (co-localization) and 293T cells (phosphorylation); also called HA-Bcl-10
B2: GST-Bcl-10 L41R mutant (other, UniProt O95999 1-233, looked up)
chain: B1 chain with L41R
notes: Expressed in DH5 alpha bacteria and immobilized on glutathione-sepharose; also called variant of Bcl-10 with a point mutation (L41R); not shown: GST fusion partner

Experiments:
[1] = biological target: T1, Myc-tagged CARD-14 (full-length CARD-14 …); assay: co-localization by immunofluorescence in Rat-1 cells
Description: To further confirm the interaction between CARD-14 and Bcl-10, co-localization experiments were performed with full-length CARD-14. In these studies, Rat-1 cells were transfected in PDL-coated glass chamber slides (BioCoat, Becton-Dickinson Labware) with plasmids expressing HA-tagged Bcl10 and Myc-tagged CARD-14 using FuGENE-6 (Roche Molecular Biochemicals) for 20 hours. Cells were fixed in 4% paraformaldehyde, permeabilized and blocked in buffer containing 0.4% Triton X-100, and sequentially incubated with primary and secondary antibodies: rabbit anti-HA polyclonal Y-11 (Santa Cruz Biotechnology), mouse anti-Myc monoclonal 9E10 (Oncogene Research Products), Alexa-488 Goat anti-mouse IgG (Molecular Probes) and Alexa-594 Goat anti-rabbit IgG (Molecular Probes). No cross-reactivity was observed between any of the antibodies. Images were acquired using a Nikon T200 microscope with a 60× oil objective and an Orca100 digital camera (Hammamatsu, Inc.) driven by MetaMorph software (Universal Imaging Corp.). Final images were prepared using Adobe PhotoShop.

[2] = biological target: T2, CARD-14 protein labeled with …; assay: GST pull-down on glutathione-sepharose, autoradiography
Description: The interaction of radiolabeled CARD-14 with GST-Bcl-10 in vitro was also examined. Bcl-10 wild type and L41R mutant were expressed in DH5 alpha bacteria as GST fusion proteins and equal amounts of protein were immobilized on glutathione-sepharose (Amersham-Pharmacia). An equal amount of CARD-14 protein, labeled with ^35S-methionine, was incubated with the protein bound sepharose beads in 100 μl of binding buffer (50 mM Tris-Cl pH 7.6, 120 mM NaCl, 0.5% Brij and protease inhibitors) for three hours. The beads were washed four times with the same buffer and boiled in SDS sample buffer. The proteins were then resolved on a 10% SDS gel and visualized by autoradiography.

Binder | binding result [1] | binding result [2]
B1 | binds | –
B2 | – | no binding
